Four molecules from patent publication US10941182 (Amgen, dated 2021) can be followed below.

T1: human APJ receptor (human, UniProt P35414 1-380)
T1 sequence (looked up): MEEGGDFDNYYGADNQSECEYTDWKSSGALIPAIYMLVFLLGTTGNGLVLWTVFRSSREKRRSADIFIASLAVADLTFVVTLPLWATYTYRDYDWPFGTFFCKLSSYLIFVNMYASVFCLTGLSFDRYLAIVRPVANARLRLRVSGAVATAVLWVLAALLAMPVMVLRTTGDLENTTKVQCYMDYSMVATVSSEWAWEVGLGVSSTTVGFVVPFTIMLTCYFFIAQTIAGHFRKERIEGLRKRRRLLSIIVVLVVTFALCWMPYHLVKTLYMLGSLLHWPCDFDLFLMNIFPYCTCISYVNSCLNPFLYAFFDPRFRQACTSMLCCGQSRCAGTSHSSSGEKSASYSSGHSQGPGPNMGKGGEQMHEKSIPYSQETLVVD

T2: rat APJ receptor (rat, UniProt Q9JHG3 1-377)
T2 sequence (looked up): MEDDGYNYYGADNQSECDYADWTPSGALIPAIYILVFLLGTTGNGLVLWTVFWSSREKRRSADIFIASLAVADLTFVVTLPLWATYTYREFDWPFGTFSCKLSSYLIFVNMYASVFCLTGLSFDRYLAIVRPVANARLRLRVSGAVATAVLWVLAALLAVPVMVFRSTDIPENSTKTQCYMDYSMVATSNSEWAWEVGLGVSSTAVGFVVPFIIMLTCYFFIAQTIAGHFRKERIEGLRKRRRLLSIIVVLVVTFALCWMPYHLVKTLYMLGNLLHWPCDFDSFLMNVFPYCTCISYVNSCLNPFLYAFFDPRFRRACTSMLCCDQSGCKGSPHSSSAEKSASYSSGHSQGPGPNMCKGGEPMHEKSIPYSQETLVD

B1: Apelin polypeptide SEQ ID NO: 342 (peptide)
peptide: Tridecanoyl-[γGlu][AEEA][AEEA][Nle]QRP[hArg][Cha]SAKG[Oic][Nle]P[Phe(4-Cl)]-OH
SMILES: CCCCCCCCCCCCC(=O)N[C@@H](CCC(=O)NCCOCCOCC(=O)NCCOCCOCC(=O)N[C@@H](CCCC)C(=O)N[C@@H](CCC(N)=O)C(=O)N[C@@H](CCCNC(=N)N)C(=O)N1CCC[C@H]1C(=O)N[C@@H](CCCCNC(=N)N)C(=O)N[C@@H](CC1CCCCC1)C(=O)N[C@@H](CO)C(=O)N[C@@H](C)C(=O)N[C@@H](CCCCN)C(=O)NCC(=O)N1[C@H](C(=O)N[C@@H](CCCC)C(=O)N2CCC[C@H]2C(=O)N[C@@H](Cc2ccc(Cl)cc2)C(=O)O)C[C@@H]2CCCC[C@@H]21)C(=O)O
B2: Apelin polypeptide SEQ ID NO: 328 (peptide)
peptide: Tridecanoyl-[γGlu][AEEA][AEEA][hArg][dR]Q[Nle]P[dR][NMeL]SAKG[Oic][Phe(4-I)]P[dBip]-OH
SMILES: CCCCCCCCCCCCC(=O)N[C@@H](CCC(=O)NCCOCCOCC(=O)NCCOCCOCC(=O)N[C@@H](CCCCNC(=N)N)C(=O)N[C@H](CCCNC(=N)N)C(=O)N[C@@H](CCC(N)=O)C(=O)N[C@@H](CCCC)C(=O)N1CCC[C@H]1C(=O)N[C@H](CCCNC(=N)N)C(=O)N(C)[C@@H](CC(C)C)C(=O)N[C@@H](CO)C(=O)N[C@@H](C)C(=O)N[C@@H](CCCCN)C(=O)NCC(=O)N1[C@H](C(=O)N[C@@H](Cc2ccc(I)cc2)C(=O)N2CCC[C@H]2C(=O)N[C@H](Cc2ccc(-c3ccccc3)cc2)C(=O)O)C[C@@H]2CCCC[C@@H]21)C(=O)O
B3: Apelin polypeptide SEQ ID NO: 347 (peptide)
peptide: Tridecanoyl-[γGlu][AEEA][AEEA][Nle]QRP[hArg][Cha]AAKG[Oic][Nle]P[Phe(4-Cl)]-OH
SMILES: CCCCCCCCCCCCC(=O)N[C@@H](CCC(=O)NCCOCCOCC(=O)NCCOCCOCC(=O)N[C@@H](CCCC)C(=O)N[C@@H](CCC(N)=O)C(=O)N[C@@H](CCCNC(=N)N)C(=O)N1CCC[C@H]1C(=O)N[C@@H](CCCCNC(=N)N)C(=O)N[C@@H](CC1CCCCC1)C(=O)N[C@@H](C)C(=O)N[C@@H](C)C(=O)N[C@@H](CCCCN)C(=O)NCC(=O)N1[C@H](C(=O)N[C@@H](CCCC)C(=O)N2CCC[C@H]2C(=O)N[C@@H](Cc2ccc(Cl)cc2)C(=O)O)C[C@@H]2CCCC[C@@H]21)C(=O)O
B4: Apelin polypeptide SEQ ID NO: 316 (peptide)
peptide: Tridecanoyl-[γGlu][AEEA][AEEA][hArg][dR]Q[Nle]P[dR][NMeL]SHKG[Oic][Phe(4-I)]P[dBip]-OH
SMILES: CCCCCCCCCCCCC(=O)N[C@@H](CCC(=O)NCCOCCOCC(=O)NCCOCCOCC(=O)N[C@@H](CCCCNC(=N)N)C(=O)N[C@H](CCCNC(=N)N)C(=O)N[C@@H](CCC(N)=O)C(=O)N[C@@H](CCCC)C(=O)N1CCC[C@H]1C(=O)N[C@H](CCCNC(=N)N)C(=O)N(C)[C@@H](CC(C)C)C(=O)N[C@@H](CO)C(=O)N[C@@H](Cc1c[nH]cn1)C(=O)N[C@@H](CCCCN)C(=O)NCC(=O)N1[C@H](C(=O)N[C@@H](Cc2ccc(I)cc2)C(=O)N2CCC[C@H]2C(=O)N[C@H](Cc2ccc(-c3ccccc3)cc2)C(=O)O)C[C@@H]2CCCC[C@@H]21)C(=O)O

Starred links: 1 amine or outer side, 2 acyl side, 3 side chain; linkers in the order of their positions; H or OH if unused. Non-standard residues stand in square brackets, D forms with d. *: point of attachment. dBip = N[C@H](Cc1ccc(-c2ccccc2)cc1)C(=O)O; Oic = O=C(O)[C@@H]1C[C@@H]2CCCC[C@@H]2N1; Phe(4-Cl) = N[C@@H](Cc1ccc(Cl)cc1)C(=O)O; Phe(4-I) = N[C@@H](Cc1ccc(I)cc1)C(=O)O; γGlu = O=C(O)[C@H](CCC(=O)[*:2])N[*:1]; Tridecanoyl = CCCCCCCCCCCCC(=O)*; hArg = N=C(N)NCCCC[C@H](N)C(=O)O; Cha = N[C@@H](CC1CCCCC1)C(=O)O; NMeL = CN[C@@H](CC(C)C)C(=O)O; Nle = CCCC[C@H](N)C(=O)O; AEEA = NCCOCCOCC(=O)O

The target in one assay is T1, human APJ receptor. Briefly: cell-based or functional assay.
Turning to B1, the “EC50 Human APJ Receptor (GTPγS assay)” value is 0.803 nM.
In the case of B2, the “EC50 Human APJ Receptor (GTPγS assay)” value worked out at 9.17 nM.
Turning to B3, the “EC50 Human APJ Receptor (GTPγS assay)” value came to 1.89 nM.
For B4, the “EC50 Human APJ Receptor (GTPγS assay)” value amounted to 6 nM.

A further assay deals with T2, rat APJ receptor. Briefly: cell-based or functional assay.
As for B1, the “EC50 Rat APJ Receptor (GTPγS assay)” value is 0.684 nM.
In the case of B2, the “EC50 Rat APJ Receptor (GTPγS assay)” value amounted to 7.7 nM.
Regarding B3, the “EC50 Rat APJ Receptor (GTPγS assay)” value was 2.13 nM.
The same measure, in the same setting: for B4 the value was 9.29 nM.
